# Entries after “also recorded” stand apart in the source; their conditions may differ.
# B1: 5D11D4: murine anti-murine PlGF-neutralizing antibody; heavy chain SEQ ID NO:12, light chain SEQ ID NO:13 (antibody, listed as Mus musculus, V domains shown)
# VH: QVQLQQPGAELVRPGASVKLSCKASGYTFTNYWINWVKQRPGQGLEWIGNIYPSDSFTNYNQKFKDKATLTVDKSSSTAYMHLSSPTSDDSAVYYCTRDYRYDAVYALDYWGQGTSVTVSS
# VL: QIVLTQSPAIMSASPGEKVTITCSASSSVSFIHWFQQKPGTSPKLWIYGTSNLASGVPARFSGSGSGTSSSLTISRMEAEDAATYYCQQRSRYPYTFGGGTKLEIK
# modifications: VH 5D11D4; VL 5D11D4
# Legend:
# [1] = test system: age-related macular edema (AMD); details: in vivo; cited from earlier work
# mouse CNV model [2] = assay: Leukocyte infiltration (CD45 staining) in laser-induced CNV mouse model; type: in vivo
# Experimental: (§1) Mice (C57BL/6J, male, 8-10 weeks old) were anesthetized by intraperitoneal injection (135 μL) of a mixture of ketamine hydrochloride (Anesketin; […]) and medetomidine (Domitor; 1 mg/mL) and their pupils dilated with one eye drop (50 μL) Tropicamide (Tropicol™; 5 mg/mL; Thea, Research Papers Clermont-Ferrand, France). Three laser burns were placed in one eye with a green laser at the 9, 12, 3 o'clock positions around the optic disk using a slit lamp delivery system with a hand-held cover slide as a contact lens moisturized with Genteal Gel™ (Novartis, Vilvoorde, Belgium). Each spot was placed with a spot size of 100 μm, laser duration of a 50 milliseconds and a power of 320 mW. […] Finally, 300 μL atipamezole (Antisedan; 5 mg/mL) was injected intraperitoneally to reverse the effect of medetomidine and to reduce sedation time.
# (§2) At different time points after lasering, the compounds were administered intravitreally (IVT). The animal was anesthetized with a mixture of ketamine hydrochloride/medetomidine and the eye was treated with a drop of 0.4% oxybuprocaine (Unicaine; Thea Pharma). Intravitreal injections (1 μL) to one eye according to Tables 1 to 3 were performed by using an analytic science syringe (SGE Analytic Science) and glass capillaries with a diameter of 50-70 μm at the end, controlled by the UMP3I Microsyringe Injector and Micro4 Controller (all from World Precision Instruments Inc., Hertfordshire, UK). Finally, atipamezole (Antisedan) was injected intraperitoneally to reverse the effect of medetomidine and to reduce sedation time.
# (§3) To analyze the in vivo efficacy of the different compounds, the retina was removed from the dissected posterior segments. These posterior eye cups, which included retinal pigment epithelium (RPE), the choroid and the sclera were stored in phosphate buffered saline (PBS).
# On day 5 after lasering, a rat anti-mouse CD45 and F4/80 antibody ( 1/100; Pharmingen, Erembodegem, Belgium) was used overnight to stain all leukocytes and macrophages, respectively, diluted in Tris-buffered saline (TBS)-Triton 0.3% (v/v). The following day, the tissues were incubated for 2 hours with rabbit anti-rat biotin labeled antibody ( 1/300; DakoCytomation A/S, Copenhagen, Denmark), diluted in TBS-Triton 0.3%. Antibody binding was visualized by fluorescent staining using streptavidin-Alexa-568 ( 1/200; Molecular Probes, Life Technologies, Eugene, Oreg., USA) in TBS-Triton 0.3% for 2 hours. The flatmounts of the posterior eye cups were mounted with Prolong Gold with 4′,6-diamidino-2-phenylindole (DAPI, Molecular Probes). Images were obtained using a microscope with a digital camera
# (Axiocam MrC5; Carl Zeiss, Oberkochen, Germany) at a magnification of 20×. Morphometric analyses were performed using commercial software (Axiovision; Zeiss, Oberkochen, Germany). The density of inflammation was determined by calculating the CD45-positive area as a proportion of the total lesion.
# mouse CNV model [3] = assay: Macrophage infiltration (F4/80 staining) in laser-induced CNV mouse model; type: in vivo; details: day 5 after lasering; IVT D0; compared to IgG; dose not stated
# Experimental: as §1
# At different time points after lasering, the compounds were administered intravitreally (IVT). The animal was anesthetized with a mixture of ketamine hydrochloride/medetomidine and the eye was treated with a drop of 0.4% oxybuprocaine (Unicaine; Thea Pharma). […]
# mouse CNV model [4] = assay: Posterior ocular collagen deposition (Col1a staining) in laser-induced CNV mouse model; type: in vivo; details: for reduction in collagen deposition (Col1a): IVT D0, 4, 10 and 20
# Experimental: as §1, §2, §3
# To stain for the presence of collagen type 1 (Colla) protein in the laser spots at day 30 after laser, a rabbit anti-collagen antibody (Abcam, 1/270) was used overnight, diluted in Tris-buffered saline (TBS)-Triton 0.5% (v/v) at 4° C. The following day, the tissues were incubated for 2 hours with goat anti rabbit IgG Alexa Fluor 555 (Life Technologies; A-21428), diluted 1/100 in TBS-Triton 0.3% (v/v) at 4° C. The flat mounts of the posterior eye cups were mounted with Prolong Gold with 4′,6-diamidino-2-phenylindole (DAPI, Molecular Probes). Images were obtained using a microscope with a digital camera (Axiocam MrC5; Carl Zeiss, Oberkochen, Germany) at a magnification factor of 20. Morphometric analyses were performed using commercial software (Axiovision; Zeiss, Oberkochen, Germany). The density of collagen deposition was determined by calculating the Colla-positive area as a proportion of the total lesion.
# (§4) The mouse CNV model as described in Example 2.1 was used. At different time points after lasering, compounds were administered intraperitoneally (IP), or intravitreally (IVT), as indicated in Table 3.
# [5] = test system: retinal pigment epithelium (RPE) cell; details: Julien et al., Br J Ophthalmol 2014; cited from earlier work
# [6] = test system: retinal ganglion cells (RGCs); assay: Neuroretinal safety in naive mice: apoptotic cells in ganglion cell layer (TUNEL staining); type: in vivo, mouse; details: 25 mg/kg IP 3 times per week
# Experimental: A TUNEL (terminal deoxynucleotidyl transferase-mediated biotinylated UTP nick end labeling) staining was performed to investigate apoptotic signal. Serial sections were deparaffinized, washed and treated with proteinase K ( 1/500; Qiagen, Venlo, the Netherlands) for 15 minutes. Next, sections are incubated with the TUNEL reaction mixture (In Situ Cell Death Detection Kit, POD; Roche, Mannheim, Germany) at 37° C. for 1 hour. Afterwards, the slides were mounted with Prolong Gold containing DAPI (Molecular Probes). Each section was scanned systematically from the temporal to the nasal or a serrata for fluorescent cells indicative of apoptosis. […]
# mouse CNV model [7] = assay: Pericyte coverage (αSMA staining) in mouse CNV model; type: in vivo; details: day 14 after lasering, 25 mg/kg IP 3 times per week
# Experimental: as §1, §4
# To study pericyte coverage as a marker of vessel maturation, smooth muscle cell actin (SMA) was examined on serial […] paraffin sections. […] The amount of SMA cells present in the lesion was determined by the use of commercial software (Axiovision; Zeiss, Oberkochen, Germany).
# [8] = test system: retinal ganglion cells (RGCs); details: mouse, in vivo, ip, 25 mg/kg
# Experimental: To investigate the safety of anti-PlGF and anti-VEGF-R2 on the retinal ganglion cell layer, naive mice (C75Bl/6 or Swiss mice) were injected with 25 mg/kg of anti-PlGF, anti-VEGF-R2 or control IgG 3 times a week for 6 weeks. Afterwards the mice were sacrificed and immunohistochemistry for the neuronal marker NeuN was performed. The samples were incubated overnight with the primary mouse anti-NeuN (Chemicon MAB377) 1/500. As secondary antibody, rabbit anti-mouse biotin-labeled 1/400 (Dako E0646) was added for 45 minutes. Subsequently, the sections were incubated with Streptavidin-HRP 1/100 in TNB for 30 minutes, followed by amplification with Biotin (kit NEL700) 1/50 in amplification buffer for 8 minutes and again incubated with Streptavidin-HRP 1/100 for 30 minutes (all from Perkin Elmer, Life Sciences). Hereafter, a 3,3-diaminobenzidine (DAB) staining (Fluka-Sigma Aldrich) was performed by adding peroxide to the tissue and a counterstaining was done with Harris hematoxylin (Merck). Viable RGCs were quantified 2 times on the same serial section on a defined length of the retina (250 μm) on either side of the optic nerve.
# [9] = day 5, equimolar comparison FIG. 1B (5D11D4 3.1 μg, aflibercept 2.4 μg)
# [10] = day 30, equimolar comparison FIG. 2B: 5D11D4 3.1 μg, DC101 3.1 μg, aflibercept 2.4 μg, TAAC 4 μg, vs IgG
# [11] = day 30, repeated IVT, 3.1 μg (FIG. 2A)
# [12] = day 5, equimolar comparison FIG. 1B: 5D11D4 3.1 μg, DC101 3.1 μg, aflibercept 2.4 μg, TAAC 4 μg, vs IgG
# [13] = repeat experiment (FIG. 4), day 30, 3.1 μg/eye, compared to PBS
molecule,measurement,setting,value
ranibizumab: antibody fragment binding all VEGF-A isoforms,patients developing a posterior fibrotic scar,[1],24.7%
bevacizumab: antibody binding all VEGF-A isoforms,patients developing a posterior fibrotic scar,[1],24.7%
"aflibercept: multispecific inhibitor capturing VEGF-A, VEGF-B and PlGF; tradename Eylea®, Bayer","effect on inflammation in laser-induced CNV, summary statement","mouse CNV model [2]; comparable reduction at comparable dose, dose not stated",able to reduce inflammation
same,reduction in leukocyte infiltration (CD45),mouse CNV model [2]; [9],50%
same,"effect on leukocyte infiltration (CD45), in words","mouse CNV model [2]; day 5 after lasering, IVT D0, 2.4 μg, vs IgG (FIG. 1A)",comparable effects
same,"effect on leukocyte infiltration (CD45), in words","mouse CNV model [2]; day 5 after lasering, IVT D0, 20 μg, vs IgG (FIG. 1A)",comparable effects
same,reduction in leukocyte infiltration (CD45),"mouse CNV model [2]; day 5 after lasering, single IVT D0, 2.4 μg, compared to IgG",approximately 50%
same,reduction in leukocyte infiltration (CD45),"mouse CNV model [2]; day 5 after lasering, single IVT D0, 20 μg, compared to IgG",approximately 50%
same,decrease of infiltration of macrophages (F4/80),mouse CNV model [3],52%
same,"effect on collagen deposition, in words",mouse CNV model [4]; [10],no effect; also recorded: did not show any anti-fibrotic effects
same,"effect on collagen deposition, in words","mouse CNV model [4]; day 30, repeated IVT, 2.4 μg (FIG. 2A)",no effect on collagen deposition
same,"effect on collagen deposition, in words",mouse CNV model [4]; [11],did not show any anti-fibrotic effects
same,"effect on collagen deposition, in words","mouse CNV model [4]; day 30, repeated IVT, 20 μg (FIG. 2A)",no effect on collagen deposition
same,"effect on posterior ocular fibrosis, summary statement","mouse CNV model [4]; laser-induced CNV, dose not stated",did not reduce posterior ocular fibrosis
same,"effect on collagen deposition / fibrosis, in words","mouse CNV model [4]; repeat experiment (FIG. 4), day 30, equimolar amount 2.4 μg/eye, compared to PBS",did not reduce fibrosis
same,"effect on RPE cell death, in words",[5],increase retinal pigment epithelium (RPE) cell death
"CC1(C)O[C@@H]2C[C@H]3[C@@H]4CCC5=CC(=O)C=C[C@]5(C)[C@@]4(F)[C@@H](O)C[C@]3(C)[C@]2(C(=O)CO)O1 [TAAC, triamcinolone acetonide, reference compound]","effect on leukocyte infiltration (CD45), in words",mouse CNV model [2]; [12],no effect
same,"effect on collagen deposition, in words",mouse CNV model [4]; [10],no effect
same,reduction in collagen deposition (Col1a),"mouse CNV model [4]; repeat experiment (FIG. 4), day 30, 40 μg/eye, compared to PBS",49%
B1,reduction in leukocyte infiltration (CD45),mouse CNV model [2]; [9],50%
same,"effect on leukocyte infiltration (CD45), in words",mouse CNV model [2]; [12],decreased leukocyte infiltration
same,"effect on leukocyte infiltration (CD45), in words","mouse CNV model [2]; day 5 after lasering, IVT D0, 1.5 μg, vs IgG (FIG. 1A)",decreased leukocyte infiltration
same,"effect on leukocyte infiltration (CD45), in words","mouse CNV model [2]; day 5 after lasering, IVT D0, 3.1 μg, vs IgG (FIG. 1A)",decreased leukocyte infiltration
same,reduction in leukocyte infiltration (CD45),"mouse CNV model [2]; day 5 after lasering, single IVT D0, 1.5 μg, compared to IgG",36%
same,reduction in leukocyte infiltration (CD45),"mouse CNV model [2]; day 5 after lasering, single IVT D0, 3.1 μg, compared to IgG",46%
same,decrease of infiltration of macrophages (F4/80),mouse CNV model [3],48%
same,"effect on collagen deposition, in words",mouse CNV model [4]; [10],delays the process of wound healing; also recorded: decreased collagen deposition
same,"effect on collagen deposition, in words","mouse CNV model [4]; day 30, repeated IVT, 1.5 μg (FIG. 2A)",decreased collagen deposition
same,"effect on collagen deposition, in words",mouse CNV model [4]; [11],decreased collagen deposition
same,reduction in collagen deposition (Col1a),"mouse CNV model [4]; day 30 after lasering, 1.5 μg, compared to IgG",43%
same,reduction in collagen deposition (Col1a),"mouse CNV model [4]; day 30 after lasering, 3.1 μg, compared to IgG",44%
same,"effect on collagen deposition / fibrosis, in words",mouse CNV model [4]; [13],significantly decreased collagen deposition
same,reduction in collagen deposition (Col1a),mouse CNV model [4]; [13],44%
same,"apoptotic cells per retinal area versus control IgG, in words","[6]; C57Bl/6 mice, after 6 weeks",comparable
same,apoptotic cells per retinal area in the ganglion cell layer (TUNEL),"[6]; C57Bl/6 mice, after 6 weeks, control IgG 16±2",20±4 apoptotic cells per retinal area
same,"effect on apoptotic cells / apoptotic rate, in words",[6]; Swiss mice (Rd gene),did not induce any alteration
same,"αSMA-positive area versus control IgG, in words",mouse CNV model [7],increased the αSMA (smooth muscle cell actin) positive area
same,increase in pericyte-covered vessels,mouse CNV model [7]; vs control IgG,35%
same,"RGCs/retinal area versus other treatment groups, in words",[8],not significantly different
same,"effect on RGC density, in words",[8],did not induce any alteration
same,ganglion cell density (RGC/retinal area),[8],4600 RGC/retinal area

# Reference: patent US20190031762A1, “POSTERIOR OCULAR FIBROSIS INHIBITION BY ANTAGONIZING PLACENTAL GROWTH FACTOR” (THROMBOGENICS NV, priority 2016, published 2019)
